The record followed here is US20230103563A1 (Sanofi, published 2023).

As a reminder, the Kd is the constant that tells how readily two partners part at equilibrium. A higher Kd goes with weaker binding. What is called koff is the rate constant with which the complex falls apart. Lower therefore signals slow dissociation. One may read the kon as the second-order rate constant of association. Low readings indicate slower complex formation, high ones faster complex formation.

In test [1] the target is T1, human IL4 (IL004, Millipore) (human, UniProt P05112 25-153).
T1 construct: Bought protein, used as analyte in SPR; also called interleukin IL4
T1 sequence (looked up): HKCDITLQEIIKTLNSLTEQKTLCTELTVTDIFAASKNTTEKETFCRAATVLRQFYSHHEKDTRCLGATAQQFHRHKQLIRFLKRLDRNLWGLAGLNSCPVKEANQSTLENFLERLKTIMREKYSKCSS
In words: SPR (Biacore), variant captured with Fab-capture kit, IL4 as analyte. Here is the method: (§1) Binding of antigens to the antibody constructs was measured using surface plasmon resonance (SPR) on a BIAcore 3000 instrument (GE Healthcare) with HBS-EP buffer (GE Healthcare). As antigens human IL4 (IL004, Millipore) and human IL13 (IL012, Millipore) were used. The capture antibody (human antibody capture kit, His capture kit, Fab capture kit, GE Life Sciences) was immobilized via primary amine groups (11000 RU) on a research grade CMS chip (GE Life Sciences) using standard procedures. […] The antigens human IL4 and human IL13 were used as analytes and injected for 240 sec with a dissociation time of 300 sec at a flow rate of 30 μL/min. IL4 and IL13 were used in a dilution series of 0.1 nM to 3 nM and 0.8 nM to 25 nM, respectively. Chip surfaces were regenerated with 2 min injects of the regeneration buffer provided with the capture kit. Sensorgrams were double referenced with a blank chip surface and HBS-EP buffer blanks. Recombinant human neonatal Fc-receptor (FcRn) protein was immobilized via primary amine groups (200 RU) in the sample flow cell compartment of a research grade CMS chip (GE Life Sciences) using standard procedures. The reference flow cell compartment was activated and deactivated without FcRn immobilization to generate a blank chip surface. For the analysis an assay buffer with pH 6.0 was used (150 mM NaCl, 20 mM Na-phosphate, 0.05% surfactant P20, pH6.0). The antibody was used as analyte at 800 nM dilution in assay buffer and injected over reference and sample flow cells for 240 sec with a dissociation time of 300 sec at a flow rate of 30 μL/min. Chip surfaces were regenerated with 2 min injects of HBS-EP buffer at 30 μl/min. Sensorgrams were double referenced with a the blank chip surface and HBS-EP buffer blanks. All data analysis was done using the BIAevaluation software v4.1.

Test [2] concerns the target T1, human IL4 (IL004, Millipore). In words: SPR (Biacore), variant captured with His-capture kit, IL4 as analyte. Here is the method: as §1
A general note: SPR reads the build-up and loss of mass on a sensor chip optically.

Test [3] has the same target. In words: SPR (Biacore 3000), construct captured, IL4 as analyte; summary table. As for the experimental part:
as §1

Test [4] shares this target. In words: SPR (Biacore), variant captured with human antibody capture kit, IL4 as analyte. As for the experimental part:
as §1

B1: protein variant (2), DVD-Fab Split CH2 (anti-IL4/anti-IL13) (bispecific antibody, IgG1)
chain 1: DIVLTQSPASLAVSLGQRATISCRASESVDSYGQSYMHWYQQKAGQPPKLLIYLASNLESGVPARFSGSGSRTDFTLTIDPVQAEDAATYYCQQNAEDSRTFGGGTKLEIKGGGGSGGGGSDIQMTQSPASLSVSVGDTITLTCHASQNIDVWLSWFQQKPGNIPKLLIYKASNLHTGVPSRFSGSGSGTGFTLTISSLQPEDIATYYCQQAHSYPFTFGGGTKLEIKRTVAAPSVFIFPPSDEQLKSGTASVVCLLNNFYPREAKVQWKVDNALQSGNSQESVTEQDSKDSTYSLSSTLTLSKADYEKHKVYACEVTHQGLSSPVTKSFNRGECGGPSVFLFPPKPKDTLMISRTPEVTCVVVDVSHEDPEVKFNWYVDGVEVHN
chain 2: EVQLKESGPGLVAPGGSLSITCTVSGFSLTDSSINWVRQPPGKGLEWLGMIWGDGRIDYADALKSRLSISKDSSKSQVFLEMTSLRTDDTATYYCARDGYFPYAMDFWGQGTSVTVSSGGGGSGGGGSQVQLQQSGPELVKPGASVKISCKASGYSFTSYWIHWIKQRPGQGLEWIGMIDPSDGETRLNQRFQGRATLTVDESTSTAYMQLRSPTSEDSAVYYCTRLKEYGNYDSFYFDVWGAGTLVTVSSASTKGPSVFPLAPSSKSTSGGTAALGCLVKDYFPEPVTVSWNSGALTSGVHTFPAVLQSSGLYSLSSVVTVPSSSLGTQTYICNVNHKPSNTKVDKKVEPKSCDKGGGAKTKPREEQYNSTYRVVSVLTVLHQDWLNGKEYKCKVSNKALPAPIEKTISKAKGQPREHHHHHH
notes: Fab-like format with IgG1 split CH2 domain
In test [1], B1 registered a Ka of 5.73e+10 M⁻¹, a Kd of 17.5 pM, a koff of 0.000259 s⁻¹ and a kon of 1.48e+07 M⁻¹ s⁻¹. In test [2], this molecule displayed a Ka of 3.33e+10 M⁻¹, a Kd of 30 pM, a koff of 0.000426 s⁻¹ and a kon of 1.42e+07 M⁻¹ s⁻¹. In addition, binding in test [3] was characterised by a dissociation constant (Kd) of 30 pM.

B2: protein variant (3), CODV-Fab Split CH2 (anti-IL4/anti-IL13) (bispecific antibody, IgG1)
chain 1: DIVLTQSPASLAVSLGQRATISCRASESVDSYGQSYMHWYQQKAGQPPKLLIYLASNLESGVPARFSGSGSRTDFTLTIDPVQAEDAATYYCQQNAEDSRTFGGGTKLEIKGQPKAAPSDIQMTQSPASLSVSVGDTITLTCHASQNIDVWLSWFQQKPGNIPKLLIYKASNLHTGVPSRFSGSGSGTGFTLTISSLQPEDIATYYCQQAHSYPFTFGGGTKLEIKTKGPSVFRTVAAPSVFIFPPSDEQLKSGTASVVCLLNNFYPREAKVQWKVDNALQSGNSQESVTEQDSKDSTYSLSSTLTLSKADYEKHKVYACEVTHQGLSSPVTKSFNRGECGGPSVFLFPPKPKDTLMISRTPEVTCVVVDVSHEDPEVKFNWYVDGVEVHN
chain 2: QVQLQQSGPELVKPGASVKISCKASGYSFTSYWIHWIKQRPGQGLEWIGMIDPSDGETRLNQRFQGRATLTVDESTSTAYMQLRSPTSEDSAVYYCTRLKEYGNYDSFYFDVWGAGTLVTVSSSEVQLKESGPGLVAPGGSLSITCTVSGFSLTDSSINWVRQPPGKGLEWLGMIWGDGRIDYADALKSRLSISKDSSKSQVFLEMTSLRTDDTATYYCARDGYFPYAMDFWGQGTSVTVSSASTKGPSVFPLAPSSKSTSGGTAALGCLVKDYFPEPVTVSWNSGALTSGVHTFPAVLQSSGLYSLSSVVTVPSSSLGTQTYICNVNHKPSNTKVDKKVEPKSCDKGGGAKTKPREEQYNSTYRVVSVLTVLHQDWLNGKEYKCKVSNKALPAPIEKTISKAKGQPREHHHHHH
notes: Fab-like cross-over format with IgG1 split CH2 domain
In test [1], B2 displayed a Ka of 1.83e+11 M⁻¹, a Kd of 5.48 pM, a koff of 0.000452 s⁻¹ and a kon of 8.26e+07 M⁻¹ s⁻¹. Further, the Kd in test [3] is 5.48 pM.

B3: protein variant (11), Split CH2 bivalent bispecific antibody (bispecific antibody, human IgG4 S228P, kappa)
heavy: EVQLKESGPGLVAPGGSLSITCTVSGFSLTDSSINWVRQPPGKGLEWLGMIWGDGRIDYADALKSRLSISKDSSKSQVFLEMTSLRTDDTATYYCARDGYFPYAMDFWGQGTSVTVSSASTKGPSVFPLAPCSRSTSESTAALGCLVKDYFPEPVTVSWNSGALTSGVHTFPAVLQSSGLYSLSSVVTVPSSSLGTKTYTCNVDHKPSNTKVDKRVESKYGPPCPPCPAPEFEGGPSVFLFPPKPKDTLMISRTPEVTCVVVDVSQEDPEVQFNWYVDGVEVHNAKTKPREEQFNSTYRVVSVLTVLHQDWLNGKEYKCKVSNKGLPSSIEKTISKAKGQPREPQVCTLPPSRDELTKNQVSLSCAVKGFYPSDIAVEWESNGQPENNYKTTPPVLDSDGSFFLVSKLTVDKSRWQQGNVFSCSVMHEALHNRFTQKSLSLSPG
light: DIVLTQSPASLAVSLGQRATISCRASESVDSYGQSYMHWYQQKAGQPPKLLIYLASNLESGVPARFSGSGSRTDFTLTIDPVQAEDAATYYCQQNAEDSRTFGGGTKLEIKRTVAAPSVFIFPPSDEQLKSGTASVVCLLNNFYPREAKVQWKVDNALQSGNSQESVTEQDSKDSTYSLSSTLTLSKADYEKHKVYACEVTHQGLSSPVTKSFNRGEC
chain 1: QVQLQQSGPELVKPGASVKISCKASGYSFTSYWIHWIKQRPGQGLEWIGMIDPSDGETRLNQRFQGRATLTVDESTSTAYMQLRSPTSEDSAVYYCTRLKEYGNYDSFYFDVWGAGTLVTVSSGGGGGSGGGGGSAKTKPREEQYNSTYRVVSVLTVLHQDWLNGKEYKCKVSNKALPAPIEKTISKAKGQPREGGGSGSAESKYGPPCPPCPAPEFEGGPSVFLFPPKPKDTLMISRTPEVTCVVVDVSQEDPEVQFNWYVDGVEVHNAKTKPREEQFNSTYRVVSVLTVLHQDWLNGKEYKCKVSNKGLPSSIEKTISKAKGQPREPQVYTLPPCRDELTKNQVSLWCLVKGFYPSDIAVEWESNGQPENNYKTTPPVLDSDGSFFLYSKLTVDKSRWQQGNVFSCSVMHEALHNHYTQKSLSLSPG
chain 2: DIQMTQSPASLSVSVGDTITLTCHASQNIDVWLSWFQQKPGNIPKLLIYKASNLHTGVPSRFSGSGSGTGFTLTISSLQPEDIATYYCQQAHSYPFTFGGGTKLEIKGGGGPSVFLFPPKPKDTLMISRTPEVTCVVVDVSHEDPEVKFNWYVDGVEVHN
notes: Four chains; on one arm CH1 and CL are replaced by the split CH2 domain; heavy chains heterodimerize by knob-into-hole mutations
In turn, B3 had a Kd in test [3] of 1.3 pM. Besides, in test [4], the affinity, expressed as Kd, was 1.3 pM; the koff was found to be 8.91e-05 s⁻¹; the kon came out at 6.84e+07 M⁻¹ s⁻¹.

B4: protein variant (12), Split CH2 bivalent bispecific antibody (bispecific antibody, human IgG4 S228P, kappa)
heavy: EVQLKESGPGLVAPGGSLSITCTVSGFSLTDSSINWVRQPPGKGLEWLGMIWGDGRIDYADALKSRLSISKDSSKSQVFLEMTSLRTDDTATYYCARDGYFPYAMDFWGQGTSVTVSSASTKGPSVFPLAPCSRSTSESTAALGCLVKDYFPEPVTVSWNSGALTSGVHTFPAVLQSSGLYSLSSVVTVPSSSLGTKTYTCNVDHKPSNTKVDKRVESKYGPPCPPCPAPEFEGGPSVFLFPPKPKDTLMISRTPEVTCVVVDVSQEDPEVQFNWYVDGVEVHNAKTKPREEQFNSTYRVVSVLTVLHQDWLNGKEYKCKVSNKGLPSSIEKTISKAKGQPREPQVCTLPPSRDELTKNQVSLSCAVKGFYPSDIAVEWESNGQPENNYKTTPPVLDSDGSFFLVSKLTVDKSRWQQGNVFSCSVMHEALHNRFTQKSLSLSPG
light: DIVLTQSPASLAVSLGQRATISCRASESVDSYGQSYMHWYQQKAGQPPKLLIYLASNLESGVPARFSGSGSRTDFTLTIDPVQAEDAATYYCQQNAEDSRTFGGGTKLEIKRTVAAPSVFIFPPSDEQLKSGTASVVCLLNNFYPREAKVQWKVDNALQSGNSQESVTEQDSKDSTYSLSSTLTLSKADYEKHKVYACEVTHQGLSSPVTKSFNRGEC
chain 1: DIQMTQSPASLSVSVGDTITLTCHASQNIDVWLSWFQQKPGNIPKLLIYKASNLHTGVPSRFSGSGSGTGFTLTISSLQPEDIATYYCQQAHSYPFTFGGGTKLEIKGGGGGSGGGGGSAKTKPREEQYNSTYRVVSVLTVLHQDWLNGKEYKCKVSNKALPAPIEKTISKAKGQPREGGGSGSAESKYGPPCPPCPAPEFEGGPSVFLFPPKPKDTLMISRTPEVTCVVVDVSQEDPEVQFNWYVDGVEVHNAKTKPREEQFNSTYRVVSVLTVLHQDWLNGKEYKCKVSNKGLPSSIEKTISKAKGQPREPQVYTLPPCRDELTKNQVSLWCLVKGFYPSDIAVEWESNGQPENNYKTTPPVLDSDGSFFLYSKLTVDKSRWQQGNVFSCSVMHEALHNHYTQKSLSLSPG
chain 2: QVQLQQSGPELVKPGASVKISCKASGYSFTSYWIHWIKQRPGQGLEWIGMIDPSDGETRLNQRFQGRATLTVDESTSTAYMQLRSPTSEDSAVYYCTRLKEYGNYDSFYFDVWGAGTLVTVSSGGGGPSVFLFPPKPKDTLMISRTPEVTCVVVDVSHEDPEVKFNWYVDGVEVHN
notes: as for B3
On to B4, for which the Kd in test [3] and in test [4] was 0.922 pM in each case.
